From paper PMC11650997 (Journal of Virology, 2024)

B1: pT1616 (human monoclonal antibody, IgG1) (antibody, V domains shown)
VH: QVQLVQSGAEVKKPGSSVKVSCKASGGTFSSYTISWVRQAPGQGLECMGRIIPILGIANYAQKFQGRVTITADKSTSIAYMEVSSLRSEDTAVYYCATEVGYSGYGSAEYFNHWGQGTPVTVSS
VL: QSVLTQPPSVSGAPGQRVTISCTGSNSNIGAGYDVHWYQQLPGTAPKLLIYANNNRPSGVPDRFSGSRSGTSASLVITGLQADDEADYYCQSYDSSLTGSLFGGGTKLTVL
notes: also called bnAb pT1616; nAb pT1616; source: HEK293ExPi, transfected, purified from the supernatant (Protein G, SEC)
B2: pT1616 IgG1 (antibody, V domains shown)
VH: B1 VH
VL: B1 VL
notes: also called bnAb pT1616; nAb pT1616; source: HEK293ExPi, transfected, purified from supernatant (Protein G, SEC)

Columns and labels:
Conditions in all cases: both partners purified
[1] = biological target: T1, SARS-CoV-2 RBD (aa 334-527) (Severe acute respiratory syndrome …, UniProt P0DTC2); assay: SPR
T1 construct: also called recombinant RBD; monomeric RBD

[2] = biological target: WIV-1 S protein ectodomain (Bat SARS-like coronavirus WIV1 …, UniProt U5WI05); assay: ELISA; […], room temperature; […]
[3] = biological target: CoVZC45 S protein ectodomain (Bat SARS-like coronavirus CoVZC45 …, UniProt A0A2R3SUW7); assay: ELISA; […], room temperature; […]
[4] = biological target: T2, HKU3-1 S protein ectodomain (Bat SARS coronavirus HKU3-1 (DQ022305), UniProt Q3LZX1); assay: ELISA; […], room temperature; […]
T2 construct: source: Drosophila S2 cells, secreted, purified (Strep-Tactin XT, Superose 6 SEC)

[5] = biological target: T3, BM48-31 S protein ectodomain (Bat coronavirus BM48-31/BGR/2008 …); assay: ELISA; […], room temperature; […]
T3 construct: also called sarbecovirus BM48-31 S protein

[6] = biological target: RaTG13 S protein ectodomain (Bat coronavirus RaTG13 (MN996532), UniProt A0ABF7PLN6); assay: ELISA; […], room temperature; […]
[7] = biological target: RsSHC014 S protein ectodomain (Bat SARS-like coronavirus RsSHC014 …, UniProt U5WLK5); assay: ELISA; […], room temperature; […]

| Binder | Kd [1] | koff [1] | kon [1] | binding result [2] | binding result [3] | binding result [4] | binding result [5] | binding result [6] | binding result [7] |
| --- | --- | --- | --- | --- | --- | --- | --- | --- | --- |
| B1 | 0.24 nM | 0.00019 s⁻¹ | 780000 M⁻¹ s⁻¹ | – | – | – | – | – | – |
| B2 | – | – | – | binds | binds | binds | no binding (tested: 2 µg/mL antibody) | binds | binds |
